The record followed here is patent US20160166666A1, “TUMOR ANTIGEN PEPTIDE” (Sumitomo Dainippon Pharma Co., Ltd., priority 2013, published 2016).

One test deals with T1, HLA-A*02:01 on T2 cells (human, UniProt P04439 25-302 at identity 0.94)).
T1 construct: whole, on cells; Empty MHC class I on the cell surface that is stabilized by an added peptide; the text gives HLA-A*02:01
T1 MHC heavy: not shown
Kind of test: MHC class I expression stabilization test on T2 cells as in Example 2, flow cytometry. Background: A flow cytometer gives signals particle by particle.

The target in test [1] is T2, HLA-A*24:02 on T2-A24 cells (human, UniProt P04439-2 25-302 at identity 0.92)).
T2 construct: whole, on cells; Empty MHC class I on the cell surface that is stabilized by an added peptide; the text gives HLA-A*24:02
T2 MHC heavy: not shown
Kind of test: MHC class I expression stabilization test on T2-A24 cells as in Example 2, flow cytometry.

For VMAYDRFVAI (Synthetic peptide, Fmoc method) [Peptide represented by SEQ ID No: 11, OR7C1 V126I (117-126)], the “mean fluorescence intensity (MFI) solvent ratio” value in the test with HLA-A*02:01 on T2 cells is 2.2 ratio to solvent; in test [1] it was 3.8 ratio to solvent.
